# Test results as given in patent US20210032299A1 (Eli Lilly, published 2021).
# Starred links: 1 amine or outer side, 2 acyl side, 3 side chain; linkers in the order of their positions; H or OH if unused. Non-standard residues stand in square brackets, D forms with d. Groups on a side chain read outwards from the residue. No end group written: not given here. *: point of attachment. C20 diacid = O=C(O)CCCCCCCCCCCCCCCCCCC(=O)*; γGlu = O=C(O)[C@H](CCC(=O)[*:2])N[*:1]; αMeF = C[C@](N)(Cc1ccccc1)C(=O)O; 4Pal = N[C@@H](Cc1ccncc1)C(=O)O; αMeL = CC(C)C[C@](C)(N)C(=O)O; AEEA = NCCOCCOCC(=O)O; Aib = CC(C)(N)C(=O)O
# Columns and labels:
# Experiment in all cases: cell-based or functional assay
# human GLP-1 receptor = human GLP-1 receptor (human, UniProt P43220 24-463)
# [1] = biological target: T1, human glucose-dependent insulinotropic peptide receptor (human, UniProt P48546 22-466)
# T1 sequence (looked up): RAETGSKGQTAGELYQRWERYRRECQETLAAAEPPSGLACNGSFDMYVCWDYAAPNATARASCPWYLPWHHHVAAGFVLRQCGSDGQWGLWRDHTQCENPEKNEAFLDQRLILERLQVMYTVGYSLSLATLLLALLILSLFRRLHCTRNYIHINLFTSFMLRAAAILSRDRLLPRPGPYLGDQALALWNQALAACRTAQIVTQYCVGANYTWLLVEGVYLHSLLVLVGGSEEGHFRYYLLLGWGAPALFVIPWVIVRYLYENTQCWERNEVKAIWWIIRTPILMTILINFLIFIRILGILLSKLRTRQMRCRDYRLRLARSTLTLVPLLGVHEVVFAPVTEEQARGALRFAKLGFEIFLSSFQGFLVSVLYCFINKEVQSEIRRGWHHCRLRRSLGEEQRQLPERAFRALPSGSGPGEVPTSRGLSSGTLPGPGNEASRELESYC
# human glucagon receptor = human glucagon receptor (human, UniProt P47871 26-477)
# Chain of human glucagon receptor (P47871 26-477): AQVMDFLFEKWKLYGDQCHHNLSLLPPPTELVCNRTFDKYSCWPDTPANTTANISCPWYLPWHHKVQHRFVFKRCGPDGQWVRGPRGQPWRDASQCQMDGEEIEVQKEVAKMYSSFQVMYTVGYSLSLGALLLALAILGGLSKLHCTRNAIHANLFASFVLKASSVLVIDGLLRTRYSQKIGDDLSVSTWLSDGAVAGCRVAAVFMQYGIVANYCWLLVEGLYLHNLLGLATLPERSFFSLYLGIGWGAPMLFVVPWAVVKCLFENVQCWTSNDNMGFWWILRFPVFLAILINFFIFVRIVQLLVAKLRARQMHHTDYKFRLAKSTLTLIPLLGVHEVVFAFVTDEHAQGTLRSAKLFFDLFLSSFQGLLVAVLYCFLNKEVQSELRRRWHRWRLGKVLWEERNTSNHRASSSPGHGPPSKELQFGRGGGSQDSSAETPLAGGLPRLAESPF
binder,measurement,setting,value
Y[Aib]EGTFISDYSI[αMeL]LDKK([AEEA-AEEA-γGlu-C20 diacid])HQ[Aib]DFVE[4Pal]LLEQGPSSGAPPPS-NH2 (N-terminus assumed; SMILES CC[C@H](C)[C@H](NC(=O)[C@H](Cc1ccccc1)NC(=O)[C@@H](NC(=O)CNC(=O)[C@H](CCC(=O)O)NC(=O)C(C)(C)NC(=O)[C@@H](N)Cc1ccc(O)cc1)[C@@H](C)O)C(=O)N[C@@H](CO)C(=O)N[C@@H](CC(=O)O)C(=O)N[C@@H](Cc1ccc(O)cc1)C(=O)N[C@@H](CO)C(=O)N[C@H](C(=O)N[C@@](C)(CC(C)C)C(=O)N[C@@H](CC(C)C)C(=O)N[C@@H](CC(=O)O)C(=O)N[C@@H](CCCCN)C(=O)N[C@@H](CCCCNC(=O)COCCOCCNC(=O)COCCOCCNC(=O)CC[C@H](NC(=O)CCCCCCCCCCCCCCCCCCC(=O)O)C(=O)O)C(=O)N[C@@H](Cc1c[nH]cn1)C(=O)N[C@@H](CCC(N)=O)C(=O)NC(C)(C)C(=O)N[C@@H](CC(=O)O)C(=O)N[C@@H](Cc1ccccc1)C(=O)N[C@H](C(=O)N[C@@H](CCC(=O)O)C(=O)N[C@@H](Cc1ccncc1)C(=O)N[C@@H](CC(C)C)C(=O)N[C@@H](CC(C)C)C(=O)N[C@@H](CCC(=O)O)C(=O)N[C@@H](CCC(N)=O)C(=O)NCC(=O)N1CCC[C@H]1C(=O)N[C@@H](CO)C(=O)N[C@@H](CO)C(=O)NCC(=O)N[C@@H](C)C(=O)N1CCC[C@H]1C(=O)N1CCC[C@H]1C(=O)N1CCC[C@H]1C(=O)N[C@@H](CO)C(N)=O)C(C)C)[C@@H](C)CC) [Example 46],hGLP1R cAMP Rel EC50,human GLP-1 receptor,> 5000 nM
same,hGIPR cAMP Rel EC50,[1],0.0294 nM
same,hGcgR cAMP Rel EC50,human glucagon receptor,863 nM
Y[Aib]EGTFISDYSI[αMeL]LDKK([AEEA-AEEA-γGlu-C20 diacid])HQ[Aib]DFVE[4Pal]LLEGGPSSGAPPPS-NH2 (N-terminus assumed; SMILES CC[C@H](C)[C@H](NC(=O)[C@H](Cc1ccccc1)NC(=O)[C@@H](NC(=O)CNC(=O)[C@H](CCC(=O)O)NC(=O)C(C)(C)NC(=O)[C@@H](N)Cc1ccc(O)cc1)[C@@H](C)O)C(=O)N[C@@H](CO)C(=O)N[C@@H](CC(=O)O)C(=O)N[C@@H](Cc1ccc(O)cc1)C(=O)N[C@@H](CO)C(=O)N[C@H](C(=O)N[C@@](C)(CC(C)C)C(=O)N[C@@H](CC(C)C)C(=O)N[C@@H](CC(=O)O)C(=O)N[C@@H](CCCCN)C(=O)N[C@@H](CCCCNC(=O)COCCOCCNC(=O)COCCOCCNC(=O)CC[C@H](NC(=O)CCCCCCCCCCCCCCCCCCC(=O)O)C(=O)O)C(=O)N[C@@H](Cc1c[nH]cn1)C(=O)N[C@@H](CCC(N)=O)C(=O)NC(C)(C)C(=O)N[C@@H](CC(=O)O)C(=O)N[C@@H](Cc1ccccc1)C(=O)N[C@H](C(=O)N[C@@H](CCC(=O)O)C(=O)N[C@@H](Cc1ccncc1)C(=O)N[C@@H](CC(C)C)C(=O)N[C@@H](CC(C)C)C(=O)N[C@@H](CCC(=O)O)C(=O)NCC(=O)NCC(=O)N1CCC[C@H]1C(=O)N[C@@H](CO)C(=O)N[C@@H](CO)C(=O)NCC(=O)N[C@@H](C)C(=O)N1CCC[C@H]1C(=O)N1CCC[C@H]1C(=O)N1CCC[C@H]1C(=O)N[C@@H](CO)C(N)=O)C(C)C)[C@@H](C)CC) [Example 47],hGLP1R cAMP Rel EC50,human GLP-1 receptor,> 5000 nM
same,hGIPR cAMP Rel EC50,[1],0.0234 nM
same,hGcgR cAMP Rel EC50,human glucagon receptor,757 nM
Y[Aib]EGTFISDYSI[αMeL]LDKK([AEEA-AEEA-γGlu-C20 diacid])HQ[Aib]DFVE[4Pal]LLAGGPSSGAPPPS-NH2 (N-terminus assumed; SMILES CC[C@H](C)[C@H](NC(=O)[C@H](Cc1ccccc1)NC(=O)[C@@H](NC(=O)CNC(=O)[C@H](CCC(=O)O)NC(=O)C(C)(C)NC(=O)[C@@H](N)Cc1ccc(O)cc1)[C@@H](C)O)C(=O)N[C@@H](CO)C(=O)N[C@@H](CC(=O)O)C(=O)N[C@@H](Cc1ccc(O)cc1)C(=O)N[C@@H](CO)C(=O)N[C@H](C(=O)N[C@@](C)(CC(C)C)C(=O)N[C@@H](CC(C)C)C(=O)N[C@@H](CC(=O)O)C(=O)N[C@@H](CCCCN)C(=O)N[C@@H](CCCCNC(=O)COCCOCCNC(=O)COCCOCCNC(=O)CC[C@H](NC(=O)CCCCCCCCCCCCCCCCCCC(=O)O)C(=O)O)C(=O)N[C@@H](Cc1c[nH]cn1)C(=O)N[C@@H](CCC(N)=O)C(=O)NC(C)(C)C(=O)N[C@@H](CC(=O)O)C(=O)N[C@@H](Cc1ccccc1)C(=O)N[C@H](C(=O)N[C@@H](CCC(=O)O)C(=O)N[C@@H](Cc1ccncc1)C(=O)N[C@@H](CC(C)C)C(=O)N[C@@H](CC(C)C)C(=O)N[C@@H](C)C(=O)NCC(=O)NCC(=O)N1CCC[C@H]1C(=O)N[C@@H](CO)C(=O)N[C@@H](CO)C(=O)NCC(=O)N[C@@H](C)C(=O)N1CCC[C@H]1C(=O)N1CCC[C@H]1C(=O)N1CCC[C@H]1C(=O)N[C@@H](CO)C(N)=O)C(C)C)[C@@H](C)CC) [Example 48],hGLP1R cAMP Rel EC50,human GLP-1 receptor,> 5000 nM
same,hGIPR cAMP Rel EC50,[1],0.0166 nM
same,hGcgR cAMP Rel EC50,human glucagon receptor,1360 nM
Y[Aib]EGT[αMeF]ISDYSIALDKK([AEEA-AEEA-γGlu-C20 diacid])HQ[Aib]DFVE[4Pal]LLEAGPSSGAPPPS-NH2 (N-terminus assumed; SMILES CC[C@H](C)[C@H](NC(=O)[C@H](CO)NC(=O)[C@H](Cc1ccc(O)cc1)NC(=O)[C@H](CC(=O)O)NC(=O)[C@H](CO)NC(=O)[C@@H](NC(=O)[C@](C)(Cc1ccccc1)NC(=O)[C@@H](NC(=O)CNC(=O)[C@H](CCC(=O)O)NC(=O)C(C)(C)NC(=O)[C@@H](N)Cc1ccc(O)cc1)[C@@H](C)O)[C@@H](C)CC)C(=O)N[C@@H](C)C(=O)N[C@@H](CC(C)C)C(=O)N[C@@H](CC(=O)O)C(=O)N[C@@H](CCCCN)C(=O)N[C@@H](CCCCNC(=O)COCCOCCNC(=O)COCCOCCNC(=O)CC[C@H](NC(=O)CCCCCCCCCCCCCCCCCCC(=O)O)C(=O)O)C(=O)N[C@@H](Cc1c[nH]cn1)C(=O)N[C@@H](CCC(N)=O)C(=O)NC(C)(C)C(=O)N[C@@H](CC(=O)O)C(=O)N[C@@H](Cc1ccccc1)C(=O)N[C@H](C(=O)N[C@@H](CCC(=O)O)C(=O)N[C@@H](Cc1ccncc1)C(=O)N[C@@H](CC(C)C)C(=O)N[C@@H](CC(C)C)C(=O)N[C@@H](CCC(=O)O)C(=O)N[C@@H](C)C(=O)NCC(=O)N1CCC[C@H]1C(=O)N[C@@H](CO)C(=O)N[C@@H](CO)C(=O)NCC(=O)N[C@@H](C)C(=O)N1CCC[C@H]1C(=O)N1CCC[C@H]1C(=O)N1CCC[C@H]1C(=O)N[C@@H](CO)C(N)=O)C(C)C) [Example 43],hGLP1R cAMP Rel EC50,human GLP-1 receptor,1020 nM
same,hGIPR cAMP Rel EC50,[1],0.0154 nM
same,hGcgR cAMP Rel EC50,human glucagon receptor,> 5000 nM
Y[Aib]EGT[αMeF]ISDYSIALDKK([AEEA-AEEA-γGlu-C20 diacid])HQ[Aib]DFVE[4Pal]LLEGGPSSGAPPPS-NH2 (N-terminus assumed; SMILES CC[C@H](C)[C@H](NC(=O)[C@H](CO)NC(=O)[C@H](Cc1ccc(O)cc1)NC(=O)[C@H](CC(=O)O)NC(=O)[C@H](CO)NC(=O)[C@@H](NC(=O)[C@](C)(Cc1ccccc1)NC(=O)[C@@H](NC(=O)CNC(=O)[C@H](CCC(=O)O)NC(=O)C(C)(C)NC(=O)[C@@H](N)Cc1ccc(O)cc1)[C@@H](C)O)[C@@H](C)CC)C(=O)N[C@@H](C)C(=O)N[C@@H](CC(C)C)C(=O)N[C@@H](CC(=O)O)C(=O)N[C@@H](CCCCN)C(=O)N[C@@H](CCCCNC(=O)COCCOCCNC(=O)COCCOCCNC(=O)CC[C@H](NC(=O)CCCCCCCCCCCCCCCCCCC(=O)O)C(=O)O)C(=O)N[C@@H](Cc1c[nH]cn1)C(=O)N[C@@H](CCC(N)=O)C(=O)NC(C)(C)C(=O)N[C@@H](CC(=O)O)C(=O)N[C@@H](Cc1ccccc1)C(=O)N[C@H](C(=O)N[C@@H](CCC(=O)O)C(=O)N[C@@H](Cc1ccncc1)C(=O)N[C@@H](CC(C)C)C(=O)N[C@@H](CC(C)C)C(=O)N[C@@H](CCC(=O)O)C(=O)NCC(=O)NCC(=O)N1CCC[C@H]1C(=O)N[C@@H](CO)C(=O)N[C@@H](CO)C(=O)NCC(=O)N[C@@H](C)C(=O)N1CCC[C@H]1C(=O)N1CCC[C@H]1C(=O)N1CCC[C@H]1C(=O)N[C@@H](CO)C(N)=O)C(C)C) [Example 44],hGLP1R cAMP Rel EC50,human GLP-1 receptor,1180 nM
same,hGIPR cAMP Rel EC50,[1],0.0084 nM
same,hGcgR cAMP Rel EC50,human glucagon receptor,> 5000 nM
Y[Aib]EGTFISDYSI[αMeL]LDKK([AEEA-AEEA-γGlu-C20 diacid])HQ[Aib]DFVE[4Pal]LLETGPSSGAPPPS-NH2 (N-terminus assumed; SMILES CC[C@H](C)[C@H](NC(=O)[C@H](Cc1ccccc1)NC(=O)[C@@H](NC(=O)CNC(=O)[C@H](CCC(=O)O)NC(=O)C(C)(C)NC(=O)[C@@H](N)Cc1ccc(O)cc1)[C@@H](C)O)C(=O)N[C@@H](CO)C(=O)N[C@@H](CC(=O)O)C(=O)N[C@@H](Cc1ccc(O)cc1)C(=O)N[C@@H](CO)C(=O)N[C@H](C(=O)N[C@@](C)(CC(C)C)C(=O)N[C@@H](CC(C)C)C(=O)N[C@@H](CC(=O)O)C(=O)N[C@@H](CCCCN)C(=O)N[C@@H](CCCCNC(=O)COCCOCCNC(=O)COCCOCCNC(=O)CC[C@H](NC(=O)CCCCCCCCCCCCCCCCCCC(=O)O)C(=O)O)C(=O)N[C@@H](Cc1c[nH]cn1)C(=O)N[C@@H](CCC(N)=O)C(=O)NC(C)(C)C(=O)N[C@@H](CC(=O)O)C(=O)N[C@@H](Cc1ccccc1)C(=O)N[C@H](C(=O)N[C@@H](CCC(=O)O)C(=O)N[C@@H](Cc1ccncc1)C(=O)N[C@@H](CC(C)C)C(=O)N[C@@H](CC(C)C)C(=O)N[C@@H](CCC(=O)O)C(=O)N[C@H](C(=O)NCC(=O)N1CCC[C@H]1C(=O)N[C@@H](CO)C(=O)N[C@@H](CO)C(=O)NCC(=O)N[C@@H](C)C(=O)N1CCC[C@H]1C(=O)N1CCC[C@H]1C(=O)N1CCC[C@H]1C(=O)N[C@@H](CO)C(N)=O)[C@@H](C)O)C(C)C)[C@@H](C)CC) [Example 45],hGLP1R cAMP Rel EC50,human GLP-1 receptor,> 5000 nM
same,hGIPR cAMP Rel EC50,[1],0.049 nM
same,hGcgR cAMP Rel EC50,human glucagon receptor,1690 nM
